From US20180064666A1

Molecular target: GST-Pin1 (UniProt Q13526)
Assay: fluorescence polarization; labelled pTide probe titrated with GST-Pin1 (the concentration is that of GST-Pin1)

GST-Pin1, sequence (Q13526 whole entry): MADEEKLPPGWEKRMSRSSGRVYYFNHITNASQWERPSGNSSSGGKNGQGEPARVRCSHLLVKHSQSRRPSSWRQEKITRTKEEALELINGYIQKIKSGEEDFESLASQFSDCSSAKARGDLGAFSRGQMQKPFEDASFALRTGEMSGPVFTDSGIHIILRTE

| Substance | EC50 (read off the curve) |
| --- | --- |
| TAMRA-conjugated pTide (N-terminal TAMRA-labeled pTide, Bth-D-phos.Thr-Pip-Nal) (peptide) | 500 nM |
| pTide-HiLyte™ Fluor 488 (N-terminal HiLyte™ Fluor 488-labeled pTide, Bth-D-phos.Thr-Pip-Nal) (peptide) | 500 nM |
